# Measured values: IntAct's records for PubMed 16648257
# B1: Type IV secretion system protein virB8 (Brucella suis biovar 1 (strain 1330)), Q7CEG3 (parent)
# chain: MFGRKQSPQKSVKNGQGNAPSVYDEALNWEAAHVRLVEKSERRAWKIAGAFGTITVLLGIGIAGMLPLKQHVPYLVRVNAQTGAPDILTSLDEKSVSYDTVMDKYWLSQYVIARETYDWYTLQKDYETVGMLSSPSEGQSYASQFQGDKALDKQYGSNVRTSVTIVSIVPNGKGIGTVRFAKTTKRTNETGDGETTHWIATIGYQYVNPSLMSESARLTNPLGFNVTSYRVDPEMGVVQ
# partner: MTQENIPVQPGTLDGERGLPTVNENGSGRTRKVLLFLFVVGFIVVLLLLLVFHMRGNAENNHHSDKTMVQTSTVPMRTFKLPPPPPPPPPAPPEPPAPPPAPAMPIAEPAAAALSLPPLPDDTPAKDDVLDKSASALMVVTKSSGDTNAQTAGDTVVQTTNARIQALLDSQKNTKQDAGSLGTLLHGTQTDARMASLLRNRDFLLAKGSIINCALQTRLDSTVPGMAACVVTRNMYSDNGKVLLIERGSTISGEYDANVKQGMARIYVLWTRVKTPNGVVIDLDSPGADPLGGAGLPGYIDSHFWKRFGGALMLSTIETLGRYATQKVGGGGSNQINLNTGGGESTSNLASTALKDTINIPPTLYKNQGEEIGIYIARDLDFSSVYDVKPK
# Variants of: B1
# Conditions: with virba_brusu virB10, Q9RPX5
row,Variant,effect of a mutation on the interaction
1,T201A,decreasing interaction strength
2,T201Y,decreasing interaction strength
